From PMC4894640

Target: F-actin (polymerized non-muscle actin) (UniProt P60709)
Test: co-sedimentation; as the F-actin co-sedimentation, with in vitro synthesized HA-RAB-10(Q68L) (control: HA-only) added to the mixture

Substance: GST-EHBP-1(260-901aa) (domain or fragment)
- increase of co-sedimentation with HA-RAB-10(Q68L) against without: 67%
